In patent publication US20220387556A1, “USE OF THE GDF-5 MUTANT FOR THE TREATMENT OF PAIN AND CARTILAGE DESTRUCTION” (Merck Patent GmbH, priority 2019, published 2022):
Like-named read-outs stand apart in the source and are kept apart here. One block for each compound: values may come before it.

Experiments:
rabbit ACLT+pMx OA model = experiment: rabbit ACLT+pMx OA model, static incapacitance test, comparison with Triamcinolone and anti-NGF-antibody (KK-rabbit-17-01); type: in vivo, New Zealand white (NZW) rabbits
Protocol: (§1) Baseline incapacitance measurement was made 2 times prior to surgery. OA was induced by ACLT+pMx knee surgery in rabbits in the right knee joint in week 0. […] Weight bearing was measured using a contact-free static incapacitance measurement whereby plates measure pressure put on the operated and injected right hindlimb in comparison to the left unoperated hindlimb. Data are percent weight put on the right over the left hindlimb, whereby 50% corresponds to equal loading of both legs and 0% to load on the unoperated left limb only. Effect size was compared to clinically effective Triamcinolone treatment. 1.41 mg Triamcinolone correspond to human equivalent dose calculation based on metabolic body weight, synovial fluid volume and cartilage surface area.
as §1, with “Effect size was compared to clinically effective Triamcinolone treatment. 1.41 mg Triamcinolone correspond to human equivalent dose calculation based on metabolic body weight, synovial fluid volume and cartilage surface area.” left out

[1] = system: primary human meniscus cells; experiment: NGF stimulated PGE2 release in primary human meniscus cells; type: cell-based; details: 10 ng/ml rhNGF, 2 days; 0.1 μM Dexamethasone, 0.1 μM Triamcinolone, 375 ng/ml anti-betaNGF antibody, 300 ng/ml R399E
Protocol: Primary meniscus cells from total knee replacement surgeries were freshly prepared one day post-surgery within the frame of an ethical permission. First, skin and muscle were removed to isolate the menisci. The menisci were transferred into a 10 cm dish filled with HAM's F12+1% P/S+1% Amphotericin B. The tissue was cut into small pieces of approximately 3×3 mm and transferred into a sterile beaker for digestion. Digestion was performed for 16 h in 50 ml of a 0.4% Collagenase in HAM's F12+1% P/S+1% Amphotericin solution at 37° C., 7.5% CO2 under constant stirring. After 16 h the solution was pipetted through a 100 μm filter followed by a 40 μm filter and then centrifuged for 5 min at 1400 g. The remaining pellet, containing the cells was resuspended in 20 ml of HAM's F12+1% P/S+1% Amphotericin+10% FCS. Cell number was counted, and cell viability was determined. Finally, 10,000 cells per well were seeded in a 96 well plate. Cells were cultivated up to 1 week to reach confluency. In between medium was exchanged once. […] The effect of the individual compounds was compared to cells which were stimulated with rhNGF only. After 2 days incubation, the supernatant was removed for determination of Prostaglandin E2 (PGE2) in the medium.

OA patients = details: cited from earlier work
BMPR-IA = BMPR-IA (Homo sapiens, UniProt P36894); details: in vitro; cited from earlier work
BMPR-IB [2] = biological target: T1, BMPR-IB (Homo sapiens, UniProt O00238); details: in vitro; cited from earlier work
BMPR-IB [3] = biological target: T1, BMPR-IB; experiment: in vitro binding affinity for BMPR-IB
From the text: This can be achieved by specific substitutions of one or more amino acid residues relating to a BMPR-IB and/or BMPR-IA binding site in the amino acid sequence of a GDF-5 related protein.
The binding affinity of GDF-5 related proteins having specific substitutions is compared to the binding affinity of human wild-type GDF-5 related protein, in particular human wild-type GDF-5.

T1 sequence (O00238 14-502): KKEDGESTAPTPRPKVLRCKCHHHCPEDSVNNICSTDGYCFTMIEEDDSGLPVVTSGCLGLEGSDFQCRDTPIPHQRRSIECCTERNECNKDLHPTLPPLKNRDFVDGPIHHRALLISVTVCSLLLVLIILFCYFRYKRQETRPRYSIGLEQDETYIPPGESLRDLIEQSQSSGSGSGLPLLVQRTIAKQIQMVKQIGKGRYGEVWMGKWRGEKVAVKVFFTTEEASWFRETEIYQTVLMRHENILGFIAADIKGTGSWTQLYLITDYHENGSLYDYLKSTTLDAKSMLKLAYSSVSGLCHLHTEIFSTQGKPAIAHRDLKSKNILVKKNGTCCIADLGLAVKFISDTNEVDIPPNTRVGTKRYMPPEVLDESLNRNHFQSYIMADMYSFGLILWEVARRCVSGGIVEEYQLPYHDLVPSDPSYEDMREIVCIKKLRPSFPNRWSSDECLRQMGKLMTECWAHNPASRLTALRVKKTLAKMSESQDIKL
Chain of BMPR-IA (P36894 24-532): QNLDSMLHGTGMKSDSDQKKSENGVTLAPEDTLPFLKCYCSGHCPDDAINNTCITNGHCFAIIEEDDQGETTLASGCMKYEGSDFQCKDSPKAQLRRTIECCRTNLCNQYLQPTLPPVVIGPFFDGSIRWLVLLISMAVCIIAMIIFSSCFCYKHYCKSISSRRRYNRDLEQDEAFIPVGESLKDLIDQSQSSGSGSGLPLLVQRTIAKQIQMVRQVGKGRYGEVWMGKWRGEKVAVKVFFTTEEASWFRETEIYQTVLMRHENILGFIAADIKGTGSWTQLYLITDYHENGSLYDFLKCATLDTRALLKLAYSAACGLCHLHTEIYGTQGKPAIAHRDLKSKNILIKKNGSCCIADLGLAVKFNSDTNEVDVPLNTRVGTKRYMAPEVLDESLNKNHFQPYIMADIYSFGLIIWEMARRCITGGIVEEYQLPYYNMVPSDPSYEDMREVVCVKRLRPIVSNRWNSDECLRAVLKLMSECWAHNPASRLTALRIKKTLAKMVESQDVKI

Compound: C[C@]12C=CC(=O)C=C1CC[C@H]1[C@@H]3C[C@@H](O)[C@](O)(C(=O)CO)[C@@]3(C)C[C@H](O)[C@@]12F [Triamcinolone]
symptomatic effect compared to placebo (incapacitance) (rabbit ACLT+pMx OA model; 1.41 mg IA in week 1, week 2 post surgery): −11.6%
effect on pain (incapacitance) (rabbit ACLT+pMx OA model; 1.41 mg IA once in week 1, 6 hours after injection): significant effect on pain
rhNGF induced PGE2 in the medium [1]: significantly inhibited

Compound: tanezumab: anti-NGF (nerve growth factor) antibody (tanezumab, Pfizer) under clinical development for OA
incidence of RPOA overall (OA patients; tanezumab 2.5 mg arm): 3.2%
incidence of RPOA overall (OA patients; tanezumab 5 mg arm): 6.3%

fold higher affinity for BMPR-IB as compared with BMPR-IA (BMPR-IB [3]): 40- to 120 fold
Compound: Wild-type GDF-5: morphogen, also known as bone morphogenetic protein-14 (BMP-14) or cartilage-derived morphogenetic protein-1 (CDMP-1)
Kd (BMPR-IA): 1 to 1.1 nM
Kd (BMPR-IB [2]): 0.008 to 0.027 nM
